Experiment [1] has as its target T1, Cav3.1 (Homo sapiens, UniProt O43497).
T1 construct: expressed in transfected cells; host or cells: HEK-293, stably transfected
The experiment in a line: Whole-cell patch clamp of Cav3.1 current in Cav3.1-HEK cells transfected with γ6, γ4, their first transmembrane domains or point mutants (Example 3). The experiment is classed as cell-based. Also noted: Activation K / Inactivation K: unit not given here. The settings on record: for Peak current density: Cav3.1-HEK cells, control 48.43±2.62; for Calcium current density (unit not given): Example 2, control −48.39+/−2.6, fusion series control −46.9+/−5; for Normalized Current Density: relative to vector control (100.0%), Table 3.3. How it is done:
Transfection. HEK-293 cells stably transfected with the Cav3.1 α1 subunit were transiently transfected with vectors containing GFP and γ subunits cDNA when the cultures reached 50% confluency. Lipofectamine 2000 reagent (Invitrogen) was used following manufacturer's protocol.
Electrophysiology. Whole cell Ca2+ currents were recorded at room temperature using an Axon Instruments Axopatch-1D amplifier, a Digidata 1200 interface and pClamp8.0 software about 48 hours after transfection. Cell capacitance was typically around 10 pF, but ranged from 5-40 pF. Recording micropipettes were made from borosilicate glass (2-3 Mohms tip resistance), and filled with solution contained (in mM) 130 NaCl, 10 EGTA, 2 MgCl2, 1 CaCl2, 10 HEPES, 3 Tris-ATP, and 0.3 Li2GTP or 0.3 Tris-GTP. Tyrode's solution was used as the bath solution. It contained (in mM) 137 NaCl, 1 KCl, 1 MgCl2, 0.33 NaH2PO4, 2 CaCl2, 10 HEPES. Both solutions were adjusted to pH 7.4 with NaOH and 280 mOsm with sucrose.
We determined the biophysical characteristics of Cav3.1 currents in transfected HEK-293 cells and effects of the first transmembrane domain of γ4 and γ6 on these properties. Test parameters were optimized for studying Cav3.1 current. The time constant (τ) of deactivation (τdeac) was obtained by single exponential fitting of tail currents. For Cav3.1 currents, the cells were clamped at a holding potential of −100 mV, then depolarized to −20 mV for 4 msec, and repolarized to various voltages from −120 mV to −60 mV at 10 mV interval for 150 msec to elicit tail currents.
The voltage dependence of activation was measured using tail currents. For Cav3.1 currents, the cells were clamped at a holding potential equal to −100 mV, and then depolarized briefly to a conditioning potential, varying from −90 mV to +60 mV, and finally clamped at −60 mV before inactivation. Using this protocol, all tail currents are elicited at the same driving force (at −60 mV), so the current amplitude accurately reflects the number of channels opened during the different conditioning potentials.
A series of conditioning prepulses of 500 msec were used to measure voltage dependence of inactivation in our experiments. Channels initially open and then reach steady-state inactivation during the 500 msec long prepulses. The membrane potential is stepped to a fixed test potential of −20 mV, where maximal peak current is elicited. Currents elicited at each test potential reflect how many channels are not in the inactivated state after a steady-state inactivation; that is, how many channels are available to open. The conditioning prepulse potentials were changed from −120 mV to 50 mV, and the test potential is fixed at −20 mV.
Data collection and analysis. To probe the structural features necessary for the function of γ subunits, we are using HEK-293 cell line stably transfected with Cav3.1 α1 subunit. These cells are then transiently transfected with vectors containing various chimeric, truncated or mutant gamma subunits. […] There is inherent variation in calcium current density in the HEK-Cav3.1 stable cell line likely due to differences in the batch used, passenger number, extent of cellular confluence, or for other unknown reasons. The averaged current density of each test group of cells was normalized to the mean current density of a parallel control group of cells plated from the same batch of cells and analyzed on the same day. A minimum of 5 cells (typically 7 to 10) from each group was used to calculate the mean behavior of test and control cells from each days recording. At least two independent transfections were performed for each test condition. Overall, averages were obtained from 21 control groups of cells that had been transfected with empty vector over several months. The data are pooled together to reduce the variance. […] The current density of the control cells over many months justified the pooling of data recorded from different batches of cells transfected with mutated γ subunits. […]
Background: In patch-clamp work, channel activity is measured electrically.

For experiment [2], the target named is T1, Cav3.1. Description: Co-immunoprecipitation of Flag-tagged γ subunits with Cav3.1. Type of experiment: binding. Here is the method:
Immunoprecipitation and Immunodetection. HEK-293 cells stably transfected with Cav3.1 were grown in T25 tissue culture flasks and transiently transfected when 70-90% confluent. Five μg of each plasmid expression vector was transfected per T25 flask using 15 μL Lipofectamine 2000 reagent (Invitrogen, Carlsbad, Calif.) as per the manufacturer's recommendations. Cells were processed for immunoprecipitation assay and immunoblot analysis 24 hr post-transfection. Cells were washed and scraped from flasks with ice cold PBS (without Ca^2+ or Mg^+) and centrifuged for 5 min at 500×g at 4° C. Cell pellets were resuspended in 1.0 mL lysis buffer (50 mM Tris HCl, 150 mM NaCl, 1 mM EDTA, 2% Triton X-100, and 1:100 Protease Inhibitor Cocktail Set III (EMD Biosciences, San Diego, Calif.)) and incubated with constant mixing for 1 hr at 4° C. Samples were cleared by centrifugation at 10,000×g for 2 min at 4° C. Equal amounts of cell lysate were added to a 75 μL bed volume of anti-FLAG M2 affinity gel (Sigma, St. Louis, Mo.) that was washed three times with lysis buffer. Samples were immunoprecipitated with constant mixing overnight at 4° C. Beads were washed three times with lysis buffer and incubated in sample buffer containing 1% SDS, 50 mM DTT, and 10% glycerol for 30 minutes at 25° C. […]

Values joined by “and” are separate entries in the source; they are usually repeats but may differ in a detail not shown here. Identical values can stand only once.

T1 sequence (O43497 whole entry): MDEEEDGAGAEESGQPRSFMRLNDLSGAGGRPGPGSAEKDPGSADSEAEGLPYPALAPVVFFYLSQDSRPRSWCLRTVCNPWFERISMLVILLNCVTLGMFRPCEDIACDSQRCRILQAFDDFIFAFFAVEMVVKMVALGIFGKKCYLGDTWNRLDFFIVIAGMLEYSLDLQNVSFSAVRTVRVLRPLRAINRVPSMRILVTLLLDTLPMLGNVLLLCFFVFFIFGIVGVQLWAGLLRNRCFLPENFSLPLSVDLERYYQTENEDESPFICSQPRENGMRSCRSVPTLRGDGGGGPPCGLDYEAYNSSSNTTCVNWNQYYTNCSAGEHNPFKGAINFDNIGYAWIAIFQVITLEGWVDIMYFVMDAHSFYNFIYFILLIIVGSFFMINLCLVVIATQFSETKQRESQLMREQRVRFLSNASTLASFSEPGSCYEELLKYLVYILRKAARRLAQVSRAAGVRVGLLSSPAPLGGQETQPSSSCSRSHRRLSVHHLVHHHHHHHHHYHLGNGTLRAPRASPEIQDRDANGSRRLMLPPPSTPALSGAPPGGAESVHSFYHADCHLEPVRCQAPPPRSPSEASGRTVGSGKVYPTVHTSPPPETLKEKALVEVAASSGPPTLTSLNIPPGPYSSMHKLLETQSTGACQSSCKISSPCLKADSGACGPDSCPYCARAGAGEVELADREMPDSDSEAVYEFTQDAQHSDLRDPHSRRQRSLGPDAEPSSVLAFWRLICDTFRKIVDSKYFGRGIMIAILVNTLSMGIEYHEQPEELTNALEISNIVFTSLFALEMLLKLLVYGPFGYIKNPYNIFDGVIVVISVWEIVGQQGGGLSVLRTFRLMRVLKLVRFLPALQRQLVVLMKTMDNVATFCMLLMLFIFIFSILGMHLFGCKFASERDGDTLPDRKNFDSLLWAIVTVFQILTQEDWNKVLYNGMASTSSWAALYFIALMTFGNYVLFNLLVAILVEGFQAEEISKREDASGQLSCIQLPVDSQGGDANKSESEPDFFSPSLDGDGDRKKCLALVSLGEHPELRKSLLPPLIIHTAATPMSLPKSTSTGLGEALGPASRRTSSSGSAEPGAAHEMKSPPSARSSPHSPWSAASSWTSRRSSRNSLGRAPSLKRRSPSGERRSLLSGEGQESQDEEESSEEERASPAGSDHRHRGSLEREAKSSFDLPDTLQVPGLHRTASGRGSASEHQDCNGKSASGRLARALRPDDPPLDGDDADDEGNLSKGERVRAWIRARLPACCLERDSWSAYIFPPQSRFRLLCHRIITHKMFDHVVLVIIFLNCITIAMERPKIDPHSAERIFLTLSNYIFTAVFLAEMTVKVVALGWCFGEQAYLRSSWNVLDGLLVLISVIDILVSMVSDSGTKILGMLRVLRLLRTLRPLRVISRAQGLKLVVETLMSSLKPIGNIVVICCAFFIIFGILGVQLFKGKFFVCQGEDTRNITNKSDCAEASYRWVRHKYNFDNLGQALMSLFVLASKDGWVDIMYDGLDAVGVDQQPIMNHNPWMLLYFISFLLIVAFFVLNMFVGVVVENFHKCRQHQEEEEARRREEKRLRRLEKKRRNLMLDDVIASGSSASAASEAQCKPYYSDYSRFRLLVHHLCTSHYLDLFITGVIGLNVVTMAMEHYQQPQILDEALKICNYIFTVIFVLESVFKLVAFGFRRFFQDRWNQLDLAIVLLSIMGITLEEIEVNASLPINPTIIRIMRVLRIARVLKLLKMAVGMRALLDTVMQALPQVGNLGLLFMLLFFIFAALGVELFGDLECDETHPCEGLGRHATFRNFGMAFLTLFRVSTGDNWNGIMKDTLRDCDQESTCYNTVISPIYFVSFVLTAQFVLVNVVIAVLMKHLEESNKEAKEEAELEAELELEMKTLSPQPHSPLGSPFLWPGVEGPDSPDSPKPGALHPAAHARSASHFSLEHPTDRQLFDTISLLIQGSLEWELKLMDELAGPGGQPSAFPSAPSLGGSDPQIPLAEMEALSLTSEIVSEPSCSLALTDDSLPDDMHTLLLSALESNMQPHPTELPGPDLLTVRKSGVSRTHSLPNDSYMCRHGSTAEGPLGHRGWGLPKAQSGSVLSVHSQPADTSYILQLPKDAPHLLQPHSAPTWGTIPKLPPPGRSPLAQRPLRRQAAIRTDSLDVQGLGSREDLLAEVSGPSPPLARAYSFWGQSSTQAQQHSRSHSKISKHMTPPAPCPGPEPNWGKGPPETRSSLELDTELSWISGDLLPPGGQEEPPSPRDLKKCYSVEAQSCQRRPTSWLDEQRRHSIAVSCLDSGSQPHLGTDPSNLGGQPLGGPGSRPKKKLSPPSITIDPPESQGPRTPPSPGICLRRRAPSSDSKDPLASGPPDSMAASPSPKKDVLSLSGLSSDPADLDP

B1: γ4: rat calcium channel γ4 subunit (AF361341), SEQ ID NO:47 (protein, listed as Rattus norvegicus)
chain: MVRCDRGLQMLLTTAGAFAAFSLMAIAIGTDYWLYSSAHICNGTNLTMDDGPPPRRARGDLTHSGLWRVCCIEGIYKGHCFRINHFPEDNDYDHDSSEYLLRIVRASSVFPILSTILLLLGGLCIGAGRIYSRKNNIVLSAGILFVAAGLSNIIGIIVYISSNTGDPSDKRDEDKKNHYNYGWSFYFGALSFIVAETVGVLAVNIYIEKNKELRFKTKREFLKASSSSPYSRMPSYRYRRRRSRSSSRSTEASPSRDASPVGLKITGAIPMGELSMYTLSREPLKVTTAASYSPDQDAGFLQMHDFFQQDLKEGFHVSMLNRRTTPV
For the molecule B1, in experiment [1], the Peak current density amounted to 48.28±3.30 pA/pF; the “Calcium current density (unit not given)” value is reported as −56.3+/−5; the “Normalized Current Density” value is 116.02%±11.4% and 116.0%. In addition, in experiment [1] (Table 3.2), the “Activation K” value turned out to be 12.83 ± 0.79, the “Activation V peak” value is −29.44±1.89 mV, the “Activation V½” value is on record as −31.62 ± 3.24 mV and the “Deactivation τ @−100 mV” value is given as 2.20 ± 0.11 ms. In experiment [1] (Table 3.2), the “Inactivation K” value was −6.04 ± 0.24, the “Inactivation V½” value is on record as −67.77 ± 1.86 mV, the “Inactivation τ @−20 mV” value amounted to 27.3 ± 1.4 ms and the “Time to peak @−25 mV” value worked out at 8.37 ± 0.39. Moreover, the “Interaction with Cav3.1 relative to γ6” value in experiment [2] (Cav3.1 in anti-Flag immunoprecipitates, FIG. 36B) is given as “approximately 10 % of γ6”.

B2: γ6L: rat calcium channel γ6 subunit, long isoform (AF361343), SEQ ID NO:48 (protein, listed as Rattus norvegicus)
chain: MMWSNFFMQEEDRRRTAVGRRRAQEQQNLGLTPEREGKIKLGLLVAIVGATLAVLAVGTEFWVELNTYKTNGSAVCEAAHLGLWKVCIKRLWQADVPAGRETCGPAELPGEANCTYFKFFTTGENAHIFQRTTKKEVNLAAAVIAVLGLTAMALGCLCVIMVLSKGAEFLLRLGAVCFGLSGLLLFVSLEVFRHSVRALLQGVNPETPPAPRLAYEYSWSLGCGVGAGLILLLGGVCFLLLTLPSWPWRSLCPKRGGPTA
As to B2, in experiment [1], the Peak current density is recorded as 27.85±3.32 pA/pF and the “Calcium current density (unit not given)” value was −7.8+/−3.3. For the same molecule, in experiment [1] (TM1 series, vs blank vector), the “Decrease of peak current density from control” value was found to be 42%. Besides, in experiment [1] (Table 3.2), the “Activation K” value worked out at 11.99 ± 1.39, the “Activation V½” value was −28.12 ± 4.07 mV, the “Deactivation τ @−100 mV” value was determined as 2.22 ± 0.19 ms and the “Inactivation K” value is −5.42 ± 0.34. Also, in experiment [1] (Table 3.2), the “Inactivation V½” value is reported as −67.53 ± 4.81 mV, the “Inactivation τ @−20 mV” value was determined as 23.9 ± 1.6 ms and the “Time to peak @−25 mV” value came to 9.03 ± 0.57. In addition, the Averaged peak current in experiment [1] (group transfected with γ6, n=10) is −344.2±48.4 pA. The “Decrease of Cav3.1 peak current density from control” value in experiment [1] (mutant series, control 100%±4.4%) is 45%. Moreover, the “Normalized Current Density” value in experiment [1] (listed as γ6) was 55.4%±5.7% and 55.4%. Moreover, the “Co-immunoprecipitation with Cav3.1” value in experiment [2] (FIG. 36A) is given as “robust coimmunoprecipittion”.

Source of the values: patent US8022177B2, “Peptides and calcium regulation in mammalian cells” (The Board of Trustees of the University of Illinois, priority 2005, dated 2011).
